Reference: patent US20170355774A1
Each block holds one binder with its values, some of them ahead of it.

How the values were obtained:
hGITR.hFc (human) = assay: SPR 37C, mAb capture
hGITR.mmh (human) = assay: SPR 37C, mAb capture
[1] = biological target: mfGITR.mmh (Macaca fasicularis); assay: SPR 37C, mAb capture
[2] = biological target: human GITR (amino acids M1-V241, NCBI Accession #NP_004186.1) expressed on cells (human) (UniProt Q9Y5U5); assay: cell-based or functional assay
Sequence of human GITR (amino acids M1-V241, NCBI Accession #NP_004186.1) expressed on cells (human) (Q9Y5U5 26-241): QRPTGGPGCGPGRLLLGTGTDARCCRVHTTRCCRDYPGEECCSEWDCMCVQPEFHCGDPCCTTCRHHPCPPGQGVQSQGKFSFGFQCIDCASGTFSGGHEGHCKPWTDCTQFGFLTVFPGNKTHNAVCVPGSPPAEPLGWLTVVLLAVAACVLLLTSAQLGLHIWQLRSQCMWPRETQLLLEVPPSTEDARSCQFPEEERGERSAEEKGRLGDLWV

Sequence of mfGITR.mmh (Macaca fasicularis) (chain, as listed by the source limits assumed): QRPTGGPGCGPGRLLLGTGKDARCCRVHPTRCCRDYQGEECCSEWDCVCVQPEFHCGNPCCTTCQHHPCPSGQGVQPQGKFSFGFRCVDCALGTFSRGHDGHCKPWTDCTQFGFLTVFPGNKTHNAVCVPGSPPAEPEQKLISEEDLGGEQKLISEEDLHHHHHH
Sequence of hGITR.hFc (human) (chain, as listed by the source limits assumed): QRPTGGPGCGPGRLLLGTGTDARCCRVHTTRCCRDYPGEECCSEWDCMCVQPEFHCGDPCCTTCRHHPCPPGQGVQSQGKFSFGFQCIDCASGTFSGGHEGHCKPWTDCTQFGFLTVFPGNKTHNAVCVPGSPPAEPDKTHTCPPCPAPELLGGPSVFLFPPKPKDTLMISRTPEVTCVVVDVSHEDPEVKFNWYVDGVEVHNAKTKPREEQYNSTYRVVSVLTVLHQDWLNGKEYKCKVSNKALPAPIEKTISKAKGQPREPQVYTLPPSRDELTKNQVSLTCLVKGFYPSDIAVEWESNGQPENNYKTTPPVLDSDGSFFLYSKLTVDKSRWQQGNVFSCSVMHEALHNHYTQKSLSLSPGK
Sequence of hGITR.mmh (human) (chain, as listed by the source limits assumed): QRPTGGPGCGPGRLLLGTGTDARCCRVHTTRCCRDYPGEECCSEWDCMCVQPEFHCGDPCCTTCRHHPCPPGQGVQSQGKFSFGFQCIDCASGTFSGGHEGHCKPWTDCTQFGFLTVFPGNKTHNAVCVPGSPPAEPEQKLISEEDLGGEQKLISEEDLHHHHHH

Kd (hGITR.hFc (human)): 20.4 nM
koff (hGITR.hFc (human)): 0.0078 s⁻¹
kon (hGITR.hFc (human)): 382000 M⁻¹ s⁻¹
t½ (hGITR.hFc (human)): 1.5 min
Kd (hGITR.mmh (human)): 122 nM
koff (hGITR.mmh (human)): 0.0263 s⁻¹
kon (hGITR.mmh (human)): 216000 M⁻¹ s⁻¹
t½ (hGITR.mmh (human)): 0.4 min
Kd [1]: 213 nM
koff [1]: 0.0464 s⁻¹
kon [1]: 218000 M⁻¹ s⁻¹
t½ [1]: 0.2 min
% Activation, NF-kB-Luc, non-anchored [2]: 25%
% Blocking, NF-kB-Luc, FcgR anchored [2]: 60%
% Blocking, NF-kB-Luc, non-anchored [2]: 54%
EC50, T-cell proliferation, FcgR anchored, donor 1 [2]: 37.2 nM
EC50, T-cell proliferation, FcgR anchored, donor 3 [2]: 42.9 nM
EC50, T-cell proliferation, FcgR anchored, donor 4 [2]: 3.5 nM
EC50, T-cell proliferation, FcgR anchored, donor 5 [2]: 52.7 nM
EC50, T-cell proliferation, FcgR anchored, mean [2]: 34.1 nM
EC50, hGITR activation, NF-kB-Luc, FcgR anchored [2]: 0.1 nM
EC50, hGITR activation, NF-kB-Luc, non-anchored [2]: 1.02 nM
Fold Activation over basal signal, NF-kB-Luc, FcgR anchored [2]: 6 fold
IC50, blocking of hGITRL stimulation, NF-kB-Luc, FcgR anchored [2]: 0.2 nM
IC50, blocking of hGITRL stimulation, NF-kB-Luc, non-anchored [2]: 0.1 nM
fold activation, T-cell proliferation, 22 nM, non-anchored, donor 1 [2]: 0.7 fold
fold activation, T-cell proliferation, 22 nM, non-anchored, donor 2 [2]: 0.8 fold
fold activation, T-cell proliferation, 22 nM, non-anchored, donor 3 [2]: 1 fold
fold activation, T-cell proliferation, 22 nM, non-anchored, donor 4 [2]: 1 fold
fold activation, T-cell proliferation, 22 nM, non-anchored, mean [2]: 0.9 fold
fold activation, T-cell proliferation, 33 nM, FcgR anchored, donor 1 [2]: 2.8 fold
fold activation, T-cell proliferation, 33 nM, FcgR anchored, donor 2 [2]: 2.8 fold
fold activation, T-cell proliferation, 33 nM, FcgR anchored, donor 3 [2]: 1.4 fold
fold activation, T-cell proliferation, 33 nM, FcgR anchored, donor 4 [2]: 1.1 fold
fold activation, T-cell proliferation, 33 nM, FcgR anchored, donor 5 [2]: 1.7 fold
fold activation, T-cell proliferation, 33 nM, FcgR anchored, mean [2]: 2 fold
fold activation, T-cell proliferation, plate-bound Ab 10.6 nM, donor 1 [2]: 6 fold
fold activation, T-cell proliferation, plate-bound Ab 10.6 nM, donor 2 [2]: 23 fold
fold activation, T-cell proliferation, plate-bound Ab 10.6 nM, donor 3 [2]: 23 fold
fold activation, T-cell proliferation, plate-bound Ab 10.6 nM, donor 4 [2]: 40 fold
fold activation, T-cell proliferation, plate-bound Ab 10.6 nM, donor 5 [2]: 23 fold
fold activation, T-cell proliferation, plate-bound Ab 10.6 nM, donor 6 [2]: 66 fold
fold activation, T-cell proliferation, plate-bound Ab 10.6 nM, donor 7 [2]: 25 fold
fold activation, T-cell proliferation, plate-bound Ab 10.6 nM, donor 8 [2]: 11 fold
fold activation, T-cell proliferation, plate-bound Ab 10.6 nM, mean [2]: 27 fold
B1: Anti-GITR Control Ab I-mIgG1 (antibody, from another filing, V domains shown)
VH: QVTLKESGPGILKPSQTLSLTCSFSGFSLSTSGMGVGWIRQPSGKGLEWLAHIWWDDDKYYNPSLKSQLTISKDTSRNQVFLKITSVDTADAATYYCARTRRYFPFAYWGQGTLVTVSS
VL: DIVMTQSQKFMSTSVGDRVSVTCKASQNVGTNVAWYQQKPGQSPKALIYSASYRYSGVPDRFTGSGSGTDFTLTINNVHSEDLAEYFCQQYNTDPLTFGAGTKLEIK

% Blocking, NF-kB-Luc, FcgR anchored [2]: 74%
EC50, hGITR activation, NF-kB-Luc, FcgR anchored [2]: 0.2 nM
Fold Activation over basal signal, NF-kB-Luc, FcgR anchored [2]: 5 fold
IC50, blocking of hGITRL stimulation, NF-kB-Luc, FcgR anchored [2]: 0.01 nM
fold activation, T-cell proliferation, 33 nM, FcgR anchored, donor 1 [2]: 1.1 fold
fold activation, T-cell proliferation, 33 nM, FcgR anchored, donor 2 [2]: 0.1 fold
fold activation, T-cell proliferation, 33 nM, FcgR anchored, donor 3 [2]: 1 fold
fold activation, T-cell proliferation, 33 nM, FcgR anchored, donor 4 [2]: 1 fold
fold activation, T-cell proliferation, 33 nM, FcgR anchored, donor 5 [2]: 1.2 fold
fold activation, T-cell proliferation, 33 nM, FcgR anchored, mean [2]: 1.3 fold
B2: Anti-GITR Control Ab I-mIgG2a (antibody, from another filing, V domains shown)
VH: QVTLKESGPGILKPSQTLSLTCSFSGFSLSTSGMGVGWIRQPSGKGLEWLAHIWWDDDKYYNPSLKSQLTISKDTSRNQVFLKITSVDTADAATYYCARTRRYFPFAYWGQGTLVTVSS
VL: DIVMTQSQKFMSTSVGDRVSVTCKASQNVGTNVAWYQQKPGQSPKALIYSASYRYSGVPDRFTGSGSGTDFTLTINNVHSEDLAEYFCQQYNTDPLTFGAGTKLEIK
